Experimental data taken from paper PMC5882647, “Simultaneous Monitoring of Cell-surface Receptor and Tumor-targeted Photodynamic Therapy via TdT-initiated Poly-G-Quadruplexes”.

Target: c-Met-Fc fusion protein (UniProt P08581 25-932)
Test: EMSA; EMSA: DNA (printed 200 nmol) with c-Met-Fc or BSA (printed 200 nmol) in 10 uL DPBS, 30 min, 37 C; native 4-20% TBE gel, SYBR Green II; pH not stated
Details: protein: recombinant; tags: Fc; chain copies: 2

Sequence of c-Met-Fc fusion protein (P08581 25-932): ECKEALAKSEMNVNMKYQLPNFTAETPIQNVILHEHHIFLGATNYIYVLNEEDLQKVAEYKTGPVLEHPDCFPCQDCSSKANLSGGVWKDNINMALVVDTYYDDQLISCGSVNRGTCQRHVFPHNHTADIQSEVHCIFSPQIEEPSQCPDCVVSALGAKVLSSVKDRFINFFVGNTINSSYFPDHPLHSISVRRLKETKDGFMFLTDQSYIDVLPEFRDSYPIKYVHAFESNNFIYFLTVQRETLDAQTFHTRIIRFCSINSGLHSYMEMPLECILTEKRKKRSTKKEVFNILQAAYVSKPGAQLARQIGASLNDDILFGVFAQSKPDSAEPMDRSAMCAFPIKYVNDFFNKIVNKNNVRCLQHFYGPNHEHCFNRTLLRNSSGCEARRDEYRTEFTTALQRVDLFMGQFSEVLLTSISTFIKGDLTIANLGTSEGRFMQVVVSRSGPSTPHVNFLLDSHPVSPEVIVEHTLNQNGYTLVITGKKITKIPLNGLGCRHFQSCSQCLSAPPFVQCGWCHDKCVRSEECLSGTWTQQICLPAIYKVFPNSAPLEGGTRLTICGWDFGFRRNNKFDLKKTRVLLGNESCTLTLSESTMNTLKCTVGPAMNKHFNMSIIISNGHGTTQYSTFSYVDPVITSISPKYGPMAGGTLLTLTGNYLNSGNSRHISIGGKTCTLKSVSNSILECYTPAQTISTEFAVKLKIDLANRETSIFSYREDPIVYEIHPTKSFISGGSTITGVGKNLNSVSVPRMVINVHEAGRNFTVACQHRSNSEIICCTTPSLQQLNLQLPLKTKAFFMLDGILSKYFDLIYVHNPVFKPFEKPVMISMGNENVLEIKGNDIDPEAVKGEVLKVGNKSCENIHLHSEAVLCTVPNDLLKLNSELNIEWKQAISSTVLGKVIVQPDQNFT

B1: aptamer-primer (AP; SL1 aptamer + poly-T linker + primer) (ssDNA)
DNA: ATCAGGCTGGATGGTAGCTCGGTCGGGGTGGGTGGGTTGGCAAGTCTGATTTTTTTTTTTTTTTTTTAATACAACCTCTCA
  binding result: binds

B2: Lib-primer (LP) (ssDNA)
DNA: ATTTAGAGTGACGCAGCAGGACACGGTGGCTTAGTTTTTCAAGGCTTAGTTTTTTTTTTTTTTTTTTAATACAACCTCTCA
  binding result: no binding
